Patent publication US20110171178A1 (CUREDM GROUP, published 2011)

Biological target: T1, HIP receptor (EXTL3) (human, UniProt O43909 1-919)
T1 construct: whole, on cells; Endogenous protein of PANC-1 cells, seen by immunostaining and Western blot; also called receptor for Human ProIslet Peptide
T1 sequence (looked up): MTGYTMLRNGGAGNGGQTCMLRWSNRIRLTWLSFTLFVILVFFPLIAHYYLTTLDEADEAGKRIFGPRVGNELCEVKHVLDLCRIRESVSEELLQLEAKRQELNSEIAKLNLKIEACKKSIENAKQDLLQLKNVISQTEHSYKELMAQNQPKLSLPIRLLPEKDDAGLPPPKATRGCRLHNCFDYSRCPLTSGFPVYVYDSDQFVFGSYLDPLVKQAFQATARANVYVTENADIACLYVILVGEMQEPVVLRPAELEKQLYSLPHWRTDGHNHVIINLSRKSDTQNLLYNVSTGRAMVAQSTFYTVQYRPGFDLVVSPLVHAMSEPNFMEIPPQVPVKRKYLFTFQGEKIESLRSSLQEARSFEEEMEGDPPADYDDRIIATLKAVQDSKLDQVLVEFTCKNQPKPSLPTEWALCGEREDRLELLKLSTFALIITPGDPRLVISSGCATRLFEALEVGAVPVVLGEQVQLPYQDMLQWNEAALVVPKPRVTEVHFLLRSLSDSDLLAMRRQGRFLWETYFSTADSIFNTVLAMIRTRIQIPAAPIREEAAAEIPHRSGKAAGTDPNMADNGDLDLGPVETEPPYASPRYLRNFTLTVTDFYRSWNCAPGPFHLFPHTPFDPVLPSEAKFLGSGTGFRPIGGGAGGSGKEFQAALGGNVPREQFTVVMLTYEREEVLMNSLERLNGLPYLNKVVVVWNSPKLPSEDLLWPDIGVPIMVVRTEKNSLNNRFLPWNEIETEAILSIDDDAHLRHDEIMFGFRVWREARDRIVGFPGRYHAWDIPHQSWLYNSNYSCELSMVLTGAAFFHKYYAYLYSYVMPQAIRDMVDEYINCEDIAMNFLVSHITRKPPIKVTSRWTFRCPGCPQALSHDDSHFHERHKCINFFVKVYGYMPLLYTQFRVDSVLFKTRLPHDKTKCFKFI
Experiment: receptor immunostaining and trafficking in PANC-1 cells (indirect)
Protocol: The upper panels indicated by the Cy3 immunofluorescent staining of EXTL3 (red). In the lower panel of images the Cy3 immunostaining of EXTL3 has been overlaid with DAPI (blue) staining of the nuclei. Cells were grown in standard growth medium as a control and compared to cells grown serum-free medium (SFM) in the presence or absence of HIP. […] The cell borders are well-defined indicating surface expression of EXTL3 on the plasma membrane. The yellow arrows delineate the cell borders while the nuclei are shown in blue. The middle images are cells grown in SFM. EXTL3 is localized in the cytoplasm as indicated by cytoplasmic Cy3 staining. The green arrows show the lack of staining in the position of the nuclei. […] In the lower image of cells grown in SFM and HIP, the blue arrows indicate the position of the nuclei. In the lower image there is an overlap of EXTL3-Cy3 staining and nuclear DAPI staining that corroborates the nuclear localization of EXTL3 (blue arrows). Scale bar=20 μm in all images.

Row | Binder | binding result
1 | IGLHDPTQGTEPNG [HIP2 (Human proIslet Peptide, Ile-Gly-Leu-His-Asp-Pro-Thr-Gln-Gly-Thr-Glu-Pro-Asn-Gly)] | binds
2 | Ac-IGLHDPTQGTEPNG-NH2 (also called Optimized HIP2B) [HIP2Blocked (Ac-Ile-Gly-Leu-His-Asp-Pro-Thr-Gln-Gly-Thr-Glu-Pro-Asn-Gly-NH2)] | binds
